How the values were obtained:
HIS-TRB3 = biological target: T1, HIS-TRB3 (Arabidopsis thaliana, UniProt Q9M2X3 1-295); assay: MST; MST: 50 mM NaPO4, 300 mM NaCl, pH 7.5, 0.05% Tween 20, 1.25 mg/ml BSA; 20 nM Cy3-dsDNA, 260 pM-8.5 uM protein; 10 min at RT; details: protein: recombinant; tags: 6xHis (pET-28b); label: 5'-Cy3 on both strands; blunt
T1 sequence: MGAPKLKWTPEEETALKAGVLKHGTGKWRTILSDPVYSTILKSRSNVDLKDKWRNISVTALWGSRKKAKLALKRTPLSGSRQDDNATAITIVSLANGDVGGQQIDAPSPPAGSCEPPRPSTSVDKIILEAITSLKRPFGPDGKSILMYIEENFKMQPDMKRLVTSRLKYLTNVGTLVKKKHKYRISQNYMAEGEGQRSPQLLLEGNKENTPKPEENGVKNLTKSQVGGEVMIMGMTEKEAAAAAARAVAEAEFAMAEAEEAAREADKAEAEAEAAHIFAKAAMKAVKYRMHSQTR

HIS-TRB1 = biological target: T2, HIS-TRB1 (Arabidopsis thaliana, UniProt Q8VWK4 1-300); assay: as above; details: protein: recombinant; tags: 6xHis (pET-28b); label: 5'-Cy3 on both strands; blunt
T2 sequence: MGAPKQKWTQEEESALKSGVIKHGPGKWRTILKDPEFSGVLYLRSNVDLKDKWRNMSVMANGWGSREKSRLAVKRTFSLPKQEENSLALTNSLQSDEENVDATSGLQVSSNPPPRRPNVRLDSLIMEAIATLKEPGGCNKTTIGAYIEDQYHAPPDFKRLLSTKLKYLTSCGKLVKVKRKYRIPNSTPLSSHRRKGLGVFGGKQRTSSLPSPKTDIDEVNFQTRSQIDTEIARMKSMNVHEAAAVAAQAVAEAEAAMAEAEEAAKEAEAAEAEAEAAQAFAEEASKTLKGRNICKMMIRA

Binder	Kd (HIS-TRB3) [nM]	Kd (HIS-TRB1) [nM]	binding result (HIS-TRB1)
R4 telo-box (4x repeat) (dsDNA) DNA 1: GGTTTAGGGTTTAGGGTTTAGGGTTTAG DNA 2: CTAAACCCTAAACCCTAAACCCTAAACC	531 ± 30	567 ± 180	
(C)GACCTAA (dsDNA) DNA 1: CATCATGGCGACCTAAGGCTGGTACTAG DNA 2: CTAGTACCAGCCTTAGGTCGCCATGATG	652 ± 64		no binding
(C)AACCTAA (dsDNA) DNA 1: CATCATGGCAACCTAAGGCTGGTACTAG DNA 2: CTAGTACCAGCCTTAGGTTGCCATGATG	298 ± 48	4900 ± 1000	
proSEP3-telo-box (dsDNA) DNA 1: TTTAAATGTTAGGGTTTTTTGTAGGATT DNA 2: AATCCTACAAAAAACCCTAACATTTAAA	640 ± 19		no binding
